What is called Kd is the free concentration of one partner at which half of the binding sites on the other are occupied at equilibrium, for simple one-to-one binding. A high value points to a looser complex.

The text below walks through data of paper doi:10.1101/2025.07.11.664054.

Experiment in all cases: ITC
Test [1] has as its target purified OsHPP11-HMA (rice).
In test [2] the target is purified OsHPP09-HMA (rice).
Test [3] has as its target purified OsHPP10-HMA (rice).
Test [4] addresses purified OsHIPP21-HMA (rice).

For the substance “recombinant AVR-Pia (from UniProt B9WZW9 1-85) (natural protein)”, the Kd in test [1] came to 0.772 µM; in test [2], 0.115 µM; in test [3] it was 5.26 µM; in test [4], 1.29 µM.
